Measurements: the supplement of paper PMC6757056
± gives the standard deviation of the averaged measurements.

B1: library; a variant is named by its letters at N, in order (parent)
chain: GCUGUCACCGGUGCUUGGUACGUUAUAUUCAGCCGGUCUGAUGAGUCUNNNNNNAGACGAAACAGC

Key:
(6R,S)-folinic acid [1] = variants of: B1; experiment: FACS-Seq fitted mean relative fluorescence mCherry/BFP without ligand (log10 relative fluorescence); HEK293T overexpressing SLC46A1; higher = higher reporter protein expression; conditions: without (6R,S)-folinic acid; ligand present: no
Outline: (§1)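 Enriched HEK293T cells carrying, by lentivirus, an mCherry reporter with the ribozyme switch and an EF1α-BFP marker spent 48 h with or without ligand and were sorted into 6 bins by mCherry/BFP. MiSeq sequencing of PCR-amplified bin genomic DNA gave bin counts. Fluorescence was calculated as the fitted normal mean of those counts. Counts were binned on log10(mCherry/BFP), and means were scaled to five spiked-in control ribozymes.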

(6R,S)-folinic acid [2] = variants of: B1; experiment: normalized RNA/DNA level without ligand (relative to sTRSVctl = 100) (log10 (% of sTRSVctl)); HEK293T overexpressing SLC46A1; higher = less ribozyme self-cleavage, higher mRNA level; conditions: without (6R,S)-folinic acid; ligand present: no
Outline: (§2)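 Library plasmids encoding reporter-linked ribozyme switches (mCherry, or eGFP for some folinic acid experiments) were transfected into HEK293T at 4 µg per 6-well well. Ligand, when used, was added 1 h before transfection. Total RNA was extracted with EDTA 72 h later, then reverse-transcribed, amplified, barcoded and sequenced. RNA level was RNA reads over DNA reads, divided by a spiked-in non-cleaving control (or the top 25 sequences), ×100, log10; only sequences with ≥100 DNA reads were kept.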

(6R,S)-folinic acid [3] = variants of: B1; experiment: FACS-Seq fitted mean relative fluorescence mCherry/BFP with ligand (log10 relative fluorescence); HEK293T overexpressing SLC46A1; ligand concentration (+) FACS-Seq: 6 mM; higher = higher reporter protein expression; conditions: with (6R,S)-folinic acid; ligand present: yes
Outline: as §1

(6R,S)-folinic acid [4] = variants of: B1; experiment: normalized RNA/DNA level with ligand (relative to sTRSVctl = 100) (log10 (% of sTRSVctl)); HEK293T overexpressing SLC46A1; ligand concentration (+) RNA-Seq: 6 mM; higher = less ribozyme self-cleavage, higher mRNA level; conditions: with (6R,S)-folinic acid; ligand present: yes
Outline: as §2

Variant | FACS-Seq fitted mean (log10) ((6R,S)-folinic acid [1]) | normalized RNA/DNA level without ligand (log10) ((6R,S)-folinic acid [2]) | FACS-Seq fitted mean (log10) ((6R,S)-folinic acid [3]) | normalized RNA/DNA level with ligand (log10) ((6R,S)-folinic acid [4])
UCAGUC | 0.427 ± 0.2 | 2.083 ± 0.016 | 0.298 ± 0.2 | 2.013 ± 0.015
UACGGU | 0.419 ± 0.099 | 1.918 ± 0.012 | 0.282 ± 0.041 | 1.98 ± 0.024
ACAAUG | 0.173 ± 0.021 | 1.96 ± 0.02 | 0.372 ± 0.11 | 2.03 ± 0.033
GGUUAU | 0.612 ± 0.021 | 1.989 ± 0.019 | 0.481 ± 0.077 | 1.98 ± 0.023
UUUGCU | 0.805 ± 0.017 | 2.043 ± 0.02 | 0.618 ± 0.24 | 2.01 ± 0.084
CUCUUA | 0.211 ± 0.012 | 2.0064 ± 0.0006 | 0.143 ± 0.3 | 2 ± 0.03
AGGGAG | 0.271 ± 0.18 | 1.8747 ± 0.0018 | 0.349 ± 0.099 | 1.99 ± 0.046
GUAACC | 0.499 ± 0.17 | 2.059 ± 0.0095 | 0.419 ± 0.081 | 2.053 ± 0.017
UAGUGG | -0.0676 ± 0.055 | 1.56 ± 0.021 | 0.623 ± 0.023 | 1.89 ± 0.046
GACUCC | 0.513 ± 0.089 | 2.053 ± 0.012 | 0.583 ± 0.11 | 2.06 ± 0.013
AGAUUA | 0.568 ± 0.048 | 2.001 ± 0.018 | 0.535 ± 0.036 | 2.01 ± 0.037
AAUGCA | 0.514 ± 0.0055 | 1.99 ± 0.03 | 0.45 ± 0.072 | 2.02 ± 0.034
UGCGAG | 0.31 ± 0.21 | 1.71 ± 0.027 | -0.231 ± 0.053 | 1.96 ± 0.058
UGCGAC | 0.375 ± 0.053 | 1.979 ± 0.018 | 0.26 ± 0.29 | 2.02 ± 0.034
GUAAAA | 0.0987 ± 0.013 | 1.998 ± 0.0036 | -0.0576 ± 0.026 | 1.96 ± 0.046
UCGAAG | -0.0439 ± 0.018 | 1.74 ± 0.041 | -0.0157 ± 0.066 | 1.991 ± 0.0057
GUGCCG | 0.617 ± 0.24 | 2.0438 ± 0.0018 | 0.702 ± 0.27 | 2.04 ± 0.052
UAACUG | 0.401 ± 0.0068 | 1.846 ± 0.015 | 0.499 ± 0.1 | 2 ± 0.024

Variant | FACS-Seq fitted mean (log10) ((6R,S)-folinic acid [1]) | normalized RNA/DNA level without ligand (log10) ((6R,S)-folinic acid [2]) | FACS-Seq fitted mean (log10) ((6R,S)-folinic acid [3]) | normalized RNA/DNA level with ligand (log10) ((6R,S)-folinic acid [4])
GAAUUA | 0.508 ± 0.088 | 2.0059 ± 0.0002 | 0.572 ± 0.15 | 2.03 ± 0.031
AAUAGG | 0.164 ± 0.037 | 1.877 ± 0.0074 | 0.334 ± 0.2 | 1.99 ± 0.028
AAUAGA | 0.354 ± 0.04 | 1.96 ± 0.024 | 0.344 ± 0.043 | 2.01 ± 0.034
GUGUGC | -0.0812 ± 0.0037 | 1.758 ± 0.017 | 0.131 ± 0.14 | 1.979 ± 0.0082
CGUGAC | 0.241 ± 0.037 | 2.015 ± 0.01 | 0.201 ± 0.09 | 1.99 ± 0.052
UGUGGU | 0.0696 ± 0.063 | 1.89 ± 0.022 | 0.265 ± 0.0042 | 2 ± 0.054
GAAGCU | 0.0826 ± 0.071 | 2.018 ± 0.015 | 0.0358 ± 0.15 | 2.04 ± 0.022
GGCCAA | 0.479 ± 0.052 | 2.045 ± 0.013 | 0.409 ± 0.049 | 2.024 ± 0.0077
AGUUGU | 0.3648 ± 0.0018 | 1.962 ± 0.012 | 0.521 ± 0.35 | 2.04 ± 0.028
GAGACU | 0.361 ± 0.041 | 2.022 ± 0.0074 | 0.232 ± 0.024 | 2.02 ± 0.022
ACACGA | 0.206 ± 0.039 | 1.9971 ± 0.00061 | 0.242 ± 0.26 | 2.02 ± 0.059
GCCAGA | 0.385 ± 0.028 | 2.019 ± 0.017 | 0.278 ± 0.36 | 2.03 ± 0.021
AACAGU | -0.296 ± 0.34 | 1.94 ± 0.018 | 0.0957 ± 0.15 | 2.001 ± 0.0087
CCCCUG | 0.237 ± 0.046 | 2.063 ± 0.0031 | 0.0558 ± 0.16 | 2.053 ± 0.0049
GAAUCA | 0.429 ± 0.13 | 2.017 ± 0.005 | 0.409 ± 0.051 | 2.01 ± 0.03
UAUCGG | 0.113 ± 0.039 | 1.69 ± 0.028 | 0.6479 ± 0.00075 | 1.94 ± 0.028
AAUAUA | 0.602 ± 0.02 | 1.95 ± 0.0055 | 0.4362 ± 0.00063 | 1.99 ± 0.039
UAGCAU | 0.36 ± 0.07 | 1.942 ± 0.0083 | 0.328 ± 0.2 | 2 ± 0.042
